In PMC7803741:
Read-outs that look alike come from different tables or passages of the source.

Experiments:
[1] = target: clathrin adaptor protein AP2 (AP2 μ1 subunit as printed) (UniProt P84092); experiment: ITC; details: reference: unphosphorylated synthetic γ2-GIM peptide; sites Y405
[2] = target: GABARAP (UniProt Q9DCD6); experiment: ITC; details: reference: unphosphorylated synthetic γ2-GIM peptide; sites Y405
[3] = target: GABAAR-associated protein (GABARAP) (mouse) (UniProt Q9DCD6); experiment: ITC; VP-ITC, 25 °C; 50 mM Tris pH 7.8, 100 mM NaCl, 1 mM EDTA, 1 mM DTT; γ2 subunit protein or peptide (100–200 μM) injected into GABARAP, GABARAPL1 or AP2 (10–20 μM) in the cell; one-site binding model
[4] = target: clathrin adaptor protein AP2 (AP2 μ1 subunit as printed) (rat) (UniProt P84092); experiment: as above
[5] = target: GABAA receptor-associated protein (GABARAP) (mouse) (UniProt Q9DCD6); experiment: ITC; VP-ITC at 25 °C; 50 mM Tris pH 7.8, 100 mM NaCl, 1 mM EDTA, 1 mM DTT; γ2 subunit protein or peptide (100-200 μM) injected into GABARAP, GABARAPL1 or AP2 (10-20 μM) in the cell; one-site binding model
[6] = target: GABAAR-associated protein (GABARAP) (mouse) (UniProt Q9DCD6); experiment: ITC; VP-ITC, 25 °C; 50 mM Tris pH 7.8, 100 mM NaCl, 1 mM EDTA, 1 mM DTT; γ2 subunit protein or peptide (100–200 μM) injected into GABARAP, GABARAPL1 or AP2 (10–20 μM) in the cell; one-site binding model; remark: listed apart in the source

Chain of clathrin adaptor protein AP2 (AP2 μ1 subunit as printed) (rat) (P84092 whole entry): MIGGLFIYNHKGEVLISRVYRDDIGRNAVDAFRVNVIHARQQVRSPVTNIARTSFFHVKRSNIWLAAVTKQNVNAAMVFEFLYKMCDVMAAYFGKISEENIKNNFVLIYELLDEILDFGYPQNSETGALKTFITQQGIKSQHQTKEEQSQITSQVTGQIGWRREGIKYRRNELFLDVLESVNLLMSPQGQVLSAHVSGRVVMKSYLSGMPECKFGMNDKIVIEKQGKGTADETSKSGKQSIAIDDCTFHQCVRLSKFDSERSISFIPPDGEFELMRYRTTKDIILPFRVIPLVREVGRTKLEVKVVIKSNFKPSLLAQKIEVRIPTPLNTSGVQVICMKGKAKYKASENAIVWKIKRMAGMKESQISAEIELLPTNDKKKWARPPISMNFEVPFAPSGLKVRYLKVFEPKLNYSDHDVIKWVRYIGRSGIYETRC
Chain of GABAAR-associated protein (GABARAP) (mouse) (Q9DCD6 whole entry): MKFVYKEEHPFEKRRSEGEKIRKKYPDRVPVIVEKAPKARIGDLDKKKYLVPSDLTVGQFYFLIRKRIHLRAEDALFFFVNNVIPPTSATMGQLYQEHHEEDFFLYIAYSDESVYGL
Chain of clathrin adaptor protein AP2 (AP2 μ1 subunit as printed) (P84092 whole entry, looked up, tested part not stated): as the sequence (P84092 whole entry) above
Chain of GABAA receptor-associated protein (GABARAP) (mouse) (Q9DCD6 whole entry): as the sequence (Q9DCD6 whole entry) above
Chain of GABARAP (Q9DCD6 whole entry, looked up): as the sequence (Q9DCD6 whole entry) above

Question: How did the “binding against the reference” value [1] turn out when “GABAA receptor γ2 subunit (γ2-GABAAR; γ2-GIM = residues 398–415) γ2-GIM, 398-415 (from UniProt P22723-2) pY405 peptide” was run?
Answer: lost

Question: And the “binding against the reference” value [2]?
Answer: lost

Question: “recombinant of the TM3–TM4 ICD lacking the 424–441 octadecapeptide (from UniProt P22723-2 375-442) (domain or fragment)” was tested. Which Kd [3] did it give?
Answer: 5.1 µM

Question: With “synthetic pY403 γ2-GIM (from UniProt P22723-2 398-415) (peptide)” as the substance, how does the Kd [3] read?
Answer: 0.82 µM

Question: What about the Kd [4] of the same substance?
Answer: 5200 nM

Question: What does the source list for “synthesized γ2-GIM WT peptide (from UniProt P22723-2 398-415)”?
Answer: Kd [3]: 3.6 µM; Kd [4]: 450 nM

Question: How did the stoichiometry N [5] turn out when “GABAA receptor γ2 subunit GIM (GABARAP interacting motif, 398-415) (peptide)” was run?
Answer: 1.06

Question: What does the source list for “GABAAR γ2 subunit GIM (GABARAP interacting motif, 398–415) (from UniProt P22723-2 398-415) (peptide)”?
Answer: Kd [6]: 4.9 µM; Kd [3]: 4.2 µM; Kd [4]: 250 nM
